Results as given in paper PMC3285272 (Cell, 2012).

B2: S. cerevisiae Arf1 (residues 18–181) I43E with a C-terminal GST tag (domain or fragment, UniProt P11076 18-181, looked up)
chain: MRILMVGLDGAGKTTVLYKLKLGEVETTIPTIGFNVETVQYKNISFTVWDVGGQDRIRSLWRHYYRNTEGVIFVVDSNDRSRIGEAREVMQRMLNEDELRNAAWLVFANKQDLPEAMSAAEITEKLGLHSIRNRPWFIQATCATSGEGLYEGLEWLSNSLKNST

Columns and labels:
[1] = biological target: full-length βδ/γζ-COP complex (R. norvegicus | B. taurus, UniProt P23514 1-953; P53619 1-511; P53620 1-874; P35604 1-177); experiment: GTPase fluorescence assay
[2] = biological target: T1, full-length γζ-COP dimer (B. taurus, UniProt P53620 1-874; P35604 1-177); experiment: pull-down
T1 sequence (looked up) 1: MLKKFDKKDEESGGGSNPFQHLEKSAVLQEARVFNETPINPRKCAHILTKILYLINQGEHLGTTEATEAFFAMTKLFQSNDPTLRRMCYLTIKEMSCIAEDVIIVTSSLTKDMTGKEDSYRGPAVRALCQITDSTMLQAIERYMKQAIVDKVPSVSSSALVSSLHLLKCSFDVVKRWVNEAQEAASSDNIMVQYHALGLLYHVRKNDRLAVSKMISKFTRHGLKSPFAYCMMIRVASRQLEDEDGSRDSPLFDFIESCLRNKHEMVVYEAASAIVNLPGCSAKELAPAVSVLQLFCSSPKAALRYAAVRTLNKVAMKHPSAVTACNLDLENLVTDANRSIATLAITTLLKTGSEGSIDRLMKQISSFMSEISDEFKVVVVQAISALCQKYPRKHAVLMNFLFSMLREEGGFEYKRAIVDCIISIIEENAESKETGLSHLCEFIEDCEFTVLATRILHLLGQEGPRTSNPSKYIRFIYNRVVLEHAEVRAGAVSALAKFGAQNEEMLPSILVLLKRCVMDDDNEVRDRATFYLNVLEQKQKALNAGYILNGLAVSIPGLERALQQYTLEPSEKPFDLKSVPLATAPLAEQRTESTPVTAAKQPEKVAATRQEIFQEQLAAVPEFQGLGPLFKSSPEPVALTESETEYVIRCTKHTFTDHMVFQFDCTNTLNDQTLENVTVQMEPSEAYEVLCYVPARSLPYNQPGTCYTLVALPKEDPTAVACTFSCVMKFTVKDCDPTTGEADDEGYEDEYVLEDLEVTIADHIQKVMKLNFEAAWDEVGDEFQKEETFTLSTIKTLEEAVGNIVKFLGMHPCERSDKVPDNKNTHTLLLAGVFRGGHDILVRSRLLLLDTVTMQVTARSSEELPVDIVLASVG
T1 sequence (looked up) 2: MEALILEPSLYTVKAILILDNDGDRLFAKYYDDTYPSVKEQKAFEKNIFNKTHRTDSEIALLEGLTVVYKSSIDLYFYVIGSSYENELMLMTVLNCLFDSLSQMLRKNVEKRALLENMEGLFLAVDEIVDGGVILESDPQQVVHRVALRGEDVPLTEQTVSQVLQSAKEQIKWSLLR

[3] = biological target: B2; experiment: pull-down
[4] = biological target: T2, γζ-COP core complex (bovine γ-COP 1–355 plus ζ-COP 1–153) (B. taurus, UniProt P53620 1-355; P35604 1-153); experiment: crystal structure
T2 sequence (looked up) 1: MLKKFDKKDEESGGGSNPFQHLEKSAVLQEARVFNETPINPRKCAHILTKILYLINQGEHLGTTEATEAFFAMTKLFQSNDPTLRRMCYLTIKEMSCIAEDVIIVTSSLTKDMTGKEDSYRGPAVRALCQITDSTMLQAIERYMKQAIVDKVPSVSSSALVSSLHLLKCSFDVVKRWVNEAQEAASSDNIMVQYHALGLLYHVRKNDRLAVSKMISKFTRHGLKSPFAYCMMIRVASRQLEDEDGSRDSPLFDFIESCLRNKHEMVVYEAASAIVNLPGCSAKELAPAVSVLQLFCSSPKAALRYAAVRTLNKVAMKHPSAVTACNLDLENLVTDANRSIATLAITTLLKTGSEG
T2 sequence (looked up) 2: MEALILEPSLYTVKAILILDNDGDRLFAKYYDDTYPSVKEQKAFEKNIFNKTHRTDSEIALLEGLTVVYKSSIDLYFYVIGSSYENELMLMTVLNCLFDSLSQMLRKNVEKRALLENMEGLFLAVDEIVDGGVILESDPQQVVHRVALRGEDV

B1: H. sapiens Arf1 (residues 18–181) (domain or fragment)
chain: not shown
[1]
  Kd: ~1000 nM

## B2
[2]
  binding result: binds

B3: full-length βδ-COP dimer (complex, R. norvegicus | B. taurus)
chain 1: MTAAENVCYTLINVPMDSEPPSEISLKNDLEKGDVKSKTEALKKVIIMILNGEKLPGLLMTIIRFVLPLQDHTIKKLLLVFWEIVPKTTPDGRLLHEMILVCDAYRKDLQHPNEFIRGSTLRFLCKLKEAELLEPLMPAIRACLEHRHSYVRRNAVLAIYTIYRNFENLIPDAPELIHDFLVNEKDASCKRNAFMMLIHADQDRALDYLSTCIDQVQTFGDILQLVIVELIYKVCHANPSERARFIRCIYNLLQSSSPAVKYEAAGTLVTLSSAPTAIKAAAQCYIDLIIKESDNNVKLIVLDRLVELKEHPAHERVLQDLVMDILRVLSTPDLEVRKKTLQLALDLVSSRNVEELVIVLKKEVIKTNNVSEHEDTDKYRQLLVRTLHSCSVRFPDMAANVIPVLMEFLSDSNEAAAADVLEFVREAIQRFDNLRMLIVEKMLEVFHAIKSVKIYRGALWILGEYCSTKEDIQSVMTEVRRSLGEIPIVESEIKKEAGELKPEEEITVGPVQKLVTEMGTYATQSALSSSRPTKKEEDRPPLRGFLLDGDFFVAASLATTLTKIALRYVALVQEKKKQNSFVAEAMLLMATILHLGKSSLPKKPITDDDVDRISLCLKVLSECSPLMNDIFNKECRQSLSQMLSAKLEEEKLSQKKESEKRNVTVQPDDPISFMQLTAKNEMNCKEDQFQLSLLAAMGNTQRKEAADPLASKLNKVTQLTGFSDPVYAEAYVHVNQYDIVLDVLVVNQTSDTLQNCTLELATLGDLKLVEKPSPLTLAPHDFANIKANVKVASTENGIIFGNIVYDVSGAASDRNCVVLSDIHIDIMDYIQPATCTDAEFRQMWAEFEWENKVTVNTNVTDLNDYLQHILKSTNMKCLTPEKALSGYCGFMAANLYARSIFGEDALANVSIEKPVHQGPDAAVTGHIRIRAKSQGMALSLGDKINLSQKKTSL
chain 2: MVLLAAAVCTKAGKAIVSRQFVEMTRTRIEGLLAAFPKLMNTGKQHTFVETESVRYVYQPMEKLYMVLITTKNSNILEDLETLRLFSRVIPEYCRALEENEISEHCFDLIFAFDEIVALGYRENVNLAQIRTFTEMDSHEEKVFRAVRETQEREAKAEMRRKAKELQQARRDAERQGKKAPGFGGFGSSTVSGGSTTSMITETIIETDKPKVAPAPARPSGPSKALKLGAKGKEVDNFVDKLKSEGENIISSNMGKRTSEATKVHAPPINMESVHMKIEEKITLTCGRDGGLQNMELHGMIMLRISDDKFGRIRLHVENEDKKGVQLQTHPNVDKKLFTAESLIGLKNPEKSFPVNSDVGVLKWRLQTTEESFIPLTINCWPSESGNGCDVNIEYELQEDNLELNDVVITIPLPSGVGAPVIGEIDGEYRHDSRRNTLEWCLPVIDAKNKSGSLEFSIAGQPNDFFPVQVSFISKKNYCNIQVTKVTQVDGNSPVRFSTETTFLVDKYEIL
[3]
  percent binding capacity relative to wild-type Arf1: 90%

B4: S. cerevisiae Arf1 (residues 18–181) complexed with GppNHp (domain or fragment, UniProt P11076 18-181, looked up)
chain: MRILMVGLDGAGKTTVLYKLKLGEVITTIPTIGFNVETVQYKNISFTVWDVGGQDRIRSLWRHYYRNTEGVIFVVDSNDRSRIGEAREVMQRMLNEDELRNAAWLVFANKQDLPEAMSAAEITEKLGLHSIRNRPWFIQATCATSGEGLYEGLEWLSNSLKNST
[4]
  binding result: binds
